For 2 molecules, Kd results are on record in patent US20250144202A1 (KAIMI BIOMEDICINE CHENGDU, published 2025).

The experiment deals with T1, FcγRIIA protein (UniProt P12318 36-218).
T1 construct: also called CD32a
T1 sequence: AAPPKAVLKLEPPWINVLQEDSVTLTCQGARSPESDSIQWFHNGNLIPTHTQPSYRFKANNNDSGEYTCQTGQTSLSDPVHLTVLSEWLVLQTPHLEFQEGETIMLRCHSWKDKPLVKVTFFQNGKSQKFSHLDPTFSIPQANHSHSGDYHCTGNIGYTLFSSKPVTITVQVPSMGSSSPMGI
Kind of experiment: BLI, multi-concentration (5000 to 312.5 nM of the Fc variant).

Residue numbers refer to the chain shown, from its start.

Usually Kd stands for the free concentration of one partner at which half of the binding sites on the other are occupied at equilibrium, for simple one-to-one binding.

B1: Seq2-Sf9 (murine IgG1 Fc variant with three mutations, alanine at positions 223, 228 and 230, expressed in Sf9 insect cells) (other)
chain: VDKKIVPADCGCAPCICAVPEVSSVFIFPPKPKDVLTITLTPKVTCVVVDISKDDPEVQFSWFVDDVEVHTAQTQPREEQFNSTFRSVSELPIMHQDWLNGKEFKCRVNSAAFPAPIEKTISKTKGRPKAPQVYTIPPPKEQMAKDKVSLTCMITDFFPEDITVEWQWNGQPAENYKNTQPIMDTDGSYFVYSKLNVQKSNWEAGNTFTCSVLHEGLHNHHTEKSLSHSPGL
notes: Fc fragment alone, expressed from the pFastBacHTa-gp64 vector in Sf9 cells and purified by Protein A; about 26 kDa on SDS-PAGE; also called mouse Fc with three mutations
Regarding B1, the Kd is 789 nM.

B2: Seq3-Sf9 (murine IgG1 Fc variant with five mutations, alanine at 223, 228 and 230, leucine at 330, glutamic acid at 332, expressed in Sf9 insect cells) (other)
chain: B1 chain with A115L, I117E
notes: Fc fragment alone, expressed from the pFastBacHTa-gp64 vector in Sf9 cells and purified by Protein A; about 26 kDa on SDS-PAGE; also called mouse Fc with five mutations
The molecule B2 had a Kd of 450 nM.
